Publication PMC4999505, “Linear ubiquitination is involved in the pathogenesis of optineurin-associated amyotrophic lateral sclerosis” (Nature Communications, 2016)

Assays:
[1] = target: T1, linear (M1-linked) tetraubiquitin (UniProt P0CG48 1-76; P0CG48 1-76; P0CG48 1-76; P0CG48 1-76); assay: crystal structure; OPTN CC2-UBAN (416–510) crystallised with linear tetraubiquitin, hanging drop, 16% PEG 3350, 250 mM HCOOK, 20 °C; 2.7 Å; details: both partners purified
T1 construct: ubiquitin, first unit of four joined head to tail (M1-linked); ubiquitin, second unit; ubiquitin, third unit; ubiquitin, fourth unit; also called linear tetraubiquitin; linear tetra-ubiquitin; source: E. coli, purified (heat treatment, HiTrap SP, Superdex 200)
T1 sequence (P0CG48 1-304, one chain of several): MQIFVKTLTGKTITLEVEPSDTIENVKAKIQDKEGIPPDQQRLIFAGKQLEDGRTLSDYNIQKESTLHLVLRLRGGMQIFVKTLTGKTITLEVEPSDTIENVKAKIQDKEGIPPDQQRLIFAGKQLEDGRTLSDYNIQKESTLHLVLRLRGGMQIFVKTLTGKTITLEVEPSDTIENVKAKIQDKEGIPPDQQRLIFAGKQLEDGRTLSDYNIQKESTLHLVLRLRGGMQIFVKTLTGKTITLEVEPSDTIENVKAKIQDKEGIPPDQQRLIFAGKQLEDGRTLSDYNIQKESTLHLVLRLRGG

[2] = target: the molecule itself; assay: as above

B1: human OPTN CC2-UBAN region (residues 416–510) (domain or fragment, UniProt Q96CV9 416-510, looked up)
chain: EKVDRAVLKELSEKLELAEKALASKQLQMDEMKQTIAKQEEDLETMTILRAQMEVYCSDFHAERAAREKIHEEKEQLALQLAVLLKENDAFEDGG
notes: residues 445-505 modelled for the longest chain; GST was cut off with Turbo3C (HRV3C) protease; also called OPTN-UBAN; source: E. coli Rosetta 2 (DE3), purified (glutathione Sepharose 4B, on-column cleavage, Resource Q, Superdex 75)
- binding result [1]: binds
- stoichiometry N [2]: 2
